From publication PMC9381540, “USP21 promotes self-renewal and tumorigenicity of mesenchymal glioblastoma stem cells by deubiquitinating and stabilizing FOXD1” (Cell Death & Disease, 2022)
Positions count from the first letter of the chain named.

Tests used:
[1] = biological target: T1, Flag-USP21 C221A (catalytically inactive mutant) (human, UniProt Q9UK80 1-565, C221A); experiment: pull-down; bacterially expressed GST or GST-FOXD1 immobilised (GST Protein Interaction Pull-Down Kit, Thermo Scientific), incubated with Flag-USP21 WT or C221A from HEK293T cells; analysed by Coomassie Brilliant Blue; conditions: both partners purified
T1 construct: also called C221A mutant; source: HEK293T, transfected, in lysate (co-IP); for the GST pull-down 'lysed from HEK293T cells' (methods), 'purified recombinant protein' (results)
T1 sequence (looked up): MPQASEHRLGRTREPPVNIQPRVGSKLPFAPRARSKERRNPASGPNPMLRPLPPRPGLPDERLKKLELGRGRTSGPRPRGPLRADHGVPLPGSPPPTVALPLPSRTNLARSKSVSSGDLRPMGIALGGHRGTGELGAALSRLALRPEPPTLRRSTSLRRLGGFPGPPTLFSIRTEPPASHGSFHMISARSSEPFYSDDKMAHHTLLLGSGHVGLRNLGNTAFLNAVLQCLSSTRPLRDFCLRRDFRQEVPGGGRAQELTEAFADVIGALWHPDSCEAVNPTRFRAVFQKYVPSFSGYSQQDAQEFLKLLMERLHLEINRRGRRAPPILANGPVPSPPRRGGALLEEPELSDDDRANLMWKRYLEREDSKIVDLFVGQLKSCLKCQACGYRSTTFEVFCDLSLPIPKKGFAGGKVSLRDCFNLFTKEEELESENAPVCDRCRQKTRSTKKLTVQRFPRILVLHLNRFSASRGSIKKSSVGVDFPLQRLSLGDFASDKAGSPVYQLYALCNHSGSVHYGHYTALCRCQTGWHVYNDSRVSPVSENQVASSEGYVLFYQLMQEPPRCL

[2] = biological target: T2, Flag-USP21 WT (ubiquitin-specific peptidase 21) (human, UniProt Q9UK80 1-565); experiment: as above; conditions: both partners purified
T2 construct: ubiquitin-specific peptidase 21 (USP21), wild type; overexpression plasmid bought from GeneChem; source: HEK293T, transfected, in lysate (co-IP); for the GST pull-down 'lysed from HEK293T cells' (methods), 'purified recombinant protein' (results)
T2 sequence (looked up): T1 sequence (looked up) with A221C

binding result [1]: binds | binding result [2]: binds
B1: GST-FOXD1 (natural protein, UniProt Q16676 1-465, looked up)
chain: MTLSTEMSDASGLAEETDIDVVGEGEDEEDEEEEDDDEGGGGGPRLAVPAQRRRRRRSYAGEDELEDLEEEEDDDDILLAPPAGGSPAPPGPAPAAGAGAGGGGGGGGAGGGGSAGSGAKNPLVKPPYSYIALITMAILQSPKKRLTLSEICEFISGRFPYYREKFPAWQNSIRHNLSLNDCFVKIPREPGNPGKGNYWTLDPESADMFDNGSFLRRRKRFKRQPLLPPNAAAAESLLLRGAGAAGGAGDPAAAAALFPPAPPPPPHAYGYGPYGCGYGLQLPPYAPPSALFAAAAAAAAAAAFHPHSPPPPPPPHGAAAELARTAFGYRPHPLGAALPGPLPASAAKAGGPGASALARSPFSIESIIGGSLGPAAAAAAAAQAAAAAQASPSPSPVAAPPAPGSSGGGCAAQAAVGPAAALTRSLVAAAAAAASSVSSSAALGTLHQGTALSSVENFTARISNC
notes: Forkhead box D1 (FOXD1) fused to GST; also called immobilized GST-FOXD1; purified GST-FOXD1; source: bacterially expressed; 'purified' (results)
